Fold lower affinity than the hCRY1 tail and Kd data for 2 molecules are collected here from doi:10.1101/758714 (bioRxiv, 2019).

Assay [1] concerns the target CRY1 photolyase homology region (PHR), residues 1-491 (human) (UniProt Q16526). Briefly: fluorescence polarisation.
Assay [2] concerns the target T1, CRY1 photolyase homology region (PHR), residues 1-491 (human, UniProt Q16526 1-491).
T1 sequence (looked up): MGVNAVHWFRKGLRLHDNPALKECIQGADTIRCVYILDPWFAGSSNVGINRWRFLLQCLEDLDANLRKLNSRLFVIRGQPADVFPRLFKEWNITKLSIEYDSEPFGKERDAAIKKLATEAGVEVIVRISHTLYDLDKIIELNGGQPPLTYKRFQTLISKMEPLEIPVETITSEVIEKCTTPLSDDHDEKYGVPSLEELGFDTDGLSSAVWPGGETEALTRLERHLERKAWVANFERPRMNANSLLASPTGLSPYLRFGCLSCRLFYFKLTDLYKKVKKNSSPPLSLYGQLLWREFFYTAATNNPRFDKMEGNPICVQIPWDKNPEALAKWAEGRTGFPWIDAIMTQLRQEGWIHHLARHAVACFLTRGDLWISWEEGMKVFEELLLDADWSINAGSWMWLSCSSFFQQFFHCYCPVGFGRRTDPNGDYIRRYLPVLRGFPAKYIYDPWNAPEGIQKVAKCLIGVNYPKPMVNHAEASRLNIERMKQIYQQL
The experiment in a line: fluorescence polarisation. Background: Fluorescence polarisation rises when a labelled molecule tumbles more slowly, as on binding a larger partner.

Take “Δ11 version of the human CRY1 tail (from UniProt Q16526 492-586) (domain or fragment)”: the fold lower affinity than the hCRY1 tail in assay [1] is 4 fold.

B1: human CRY1 tail (residues 492-586) (domain or fragment, UniProt Q16526 492-586, looked up)
chain: SRYRGLGLLASVPSNPNGNGGFMGYSAENIPGCSSSGSCSQGSGILHYAHGDSQQTHLLKQGRSSMGTGLSGGKRPSQEEDTQSIGPKVQRQSTN
modifications: fluorescein (FAM) on the N-terminus in the FP binding assays
Usually Kd stands for the concentration at which binding is half-saturated. Read a high Kd as weaker binding. Turning to B1, the Kd in assay [2] was approximately 5 µM.
